Drawing on the RNAGym collection of RNA variant scans (doi:10.7554/elife.80360), this text covers self-cleavage for 64 variants.

To fix the notation:
B1: HDV Ribozyme (parent)
chain: GGCCGGCAUGGUCCCAGCCUCCUCGCUGGCGCCGGCUGGGCAACAUUCCGAGGGGACCGUCCCCUCGGUAAUGGCGAAUGGGACCCA

In this data set the parent is B1. Put plainly: self-cleavage, relative activity (ratio to wild type); higher = more cleavage; co-transcriptional.
With GGCCGGCAUGGUCCCAGCCUCCUCGCUGGCGCCGGCUGGGCAACAUUCCGAGGGGACCGUCGCCUCGGUAAAGGCGAAUGGGACCCA, the self-cleavage is 0.467.

For the variant GGCCGGCACGGUCCCAGCCUCCUCGCUGGCGCCGGCUGGGCAACAUUCCGAGGGGACCGUCCCCUCGGUAAUGGCGCAUGGGACCCA, the self-cleavage worked out at 0.364.

As for GGCCGGCUUGGUCCCAGCCUCCUCGGUGGCGCCGGCUGGGCAACAUUCCGAGGGGACCGUCCCCUCGGUAAUGGCGAAUGGGACCCA, the self-cleavage came to 1.03.

For GGCCGGCAUGGUCCCAGCCUCCUCGCUGGCGCCGGCUGGGCAACAUUCCGAGGGGACCGUCCCCUCGGUAAUCGCGAAUUGGACCCA, the self-cleavage was 0.141.

Take GGCCGGCAUGGUCCCAGCCUCCUCGCGGGCGCAGGCUGGGCAACAUUCCGAGGGGACCGUCCCCUCGGUAAUGGCGAAUGGGACCCA: the self-cleavage amounted to 0.185.

Consider GGCCGGCAUGGUCCCAGCCUCCUCGCUGGCGCCGGCUGGGCAACAUUCCGAGGGGGCUGUCCCCUCGGUAAUGGCGAAUGGGACCCA, for which the self-cleavage stood at 0.862.

For GGCCGGCAUGGUCCCAGCCUCCUCGCUGGCGCCGGCUGGGCAACAUUCCGAGGGGGCCGUCCCCUCGGUAAUGACGAAUGGGACCCA, the self-cleavage amounted to 0.45.

Consider GGCCGGCAUGGUCCCAGCCUCCUUGCUGGCGUCGGCUGGGCAACAUUCCGAGGGGACCGUCCCCUCGGUAAUGGCGAAUGGGACCCA, for which the self-cleavage was 0.422.

Regarding GGCCGGCAUGGUCCCAGCCUCCUCGCUGGCGCCGGCUGGGCAACAUUCCGAGGGGACCGUCCCCUCGGCAAUGGGGAAUGGGACCCA, the self-cleavage amounted to 0.213.

GGCCGGCAUGGUCCCAGCCUCCUCGCUGGCGCCGGCUGGGCAACUAUCCGAGGGGACCGUCCCCUCGGUAAUGGCGAAUGGGACCCA: the self-cleavage is 0.639.

In the case of GGCCGGCAUGGUCCCAGCCUCCUCGCUGGCACCGGCUGGGCAACAUUCCGAGGGGACCGUCCCAUCGGUAAUGGCGAAUGGGACCCA, the self-cleavage was 0.359.

On to GGCCGGCAUGGUCCCCGCCUCCUCGCUGGCGCCGGCUGGGCAACAUUCCGAGGGGACCGUCCCCUCGGGAAUGGCGAAUGGGACCCA, for which the self-cleavage came to 0.923.

For the variant GGCCGGCAUGGUCCCAUACUCCUCGCUGGCGCCGGCUGGGCAACAUUCCGAGGGGACCGUCCCCUCGGUAAUGGCGAAUGGGACCCA, the self-cleavage stood at 0.0978.

For GGCCGGCAUGGUCCCAGCCUCAUCGCUGGCGCCGGCUGGGCAACAUUCCGAGGGGACCGUCCCCUCGGUAAUUGCGAAUGGGACCCA, the self-cleavage is 0.0573.

For GGCCGGCAUGGUCCCAGCCUCCUCGCUGGCGCCGGCUGGGCAACACUCCGAGGGGACCGUCCCCUCGGCAAUGGCGAAUGGGACCCA, the self-cleavage worked out at 1.12.

Consider GGCCGGCAUGGUCCCAGCCUCCUCGCUGGCGCCGGCUGGGCAACUUUCCGAGGGGACCUUCCCCUCGGUAAUGGCGAAUGGGACCCA, for which the self-cleavage was 0.903.

Regarding GGCCGGCAUGGUCCCAGCCUCCUCGCUGGCGCCGGCAGGGCAACAUUCCGAGGGGACCGUCCCCUCAGUAAUGGCGAAUGGGACCCA, the self-cleavage is 0.215.

With GGCCGGCAUGGUCCCAGCCUCCUCGCUGGCGCCGGCUGGGCAACAUCCCGAGGAGACCGUCCCCUCGGUAAUGGCGAAUGGGACCCA, the self-cleavage is 1.04.

As to GGCCGGCAUGGUCCCAGCCUCCUCGCUGGCGCCGGGUGGGCAACAUUCCGAGGGGACCGUCCCCUCGGUAAUGGCGAAUAGGACCCA, the self-cleavage worked out at 0.0382.

For the variant GGCCGGCAUGGUCCCAGCCUCCUCCCUGGCGCCGGCUGGGCAACAUUCCGAGGGGACCGUCCCCUCGGUAAUGGCGAAUGGGCCCCA, the self-cleavage came to 0.0489.

Consider GGCCGGCAUGGUCCCAGCCUCCUCGCUGGCGCCGGCUGGGCAACAUUACGAGGGGACCGUCCCCUCGGUAAUGGCCAAUGGGACCCA, for which the self-cleavage was determined as 1.05.

Consider GGCCGGCAUGGUCCCAGCCUCCUCGCUGGCGCCGGCUGGGCAGCUUUCCGAGGGGACCGUCCCCUCGGUAAUGGCGAAUGGGACCCA, for which the self-cleavage was found to be 0.584.

For the variant GGCCGGCAUCGUCCCAGCCUCCUCGCUGGCGCUGGCUGGGCAACAUUCCGAGGGGACCGUCCCCUCGGUAAUGGCGAAUGGGACCCA, the self-cleavage was found to be 0.696.

Turning to GGCCGGGAUGGUCCCAGCCUCCUCGCUGGCGCCGGCUGGGCAACAUUACGAGGGGACCGUCCCCUCGGUAAUGGCGAAUGGGACCCA, the self-cleavage worked out at 0.262.

As for GGCCGGCAUGGUCCCAGCCUCCUCGCUGGGGCCGGCUGGGCAACAUUCCUAGGGGACCGUCCCCUCGGUAAUGGCGAAUGGGACCCA, the self-cleavage amounted to 0.0978.

GGCCGGCAUGGUCCCAGCCUCCUCGCUGGCGCCGGCUGCGCAACAUUCCGAGGGGACCGUCCCCUCGGUAAUGGAGAAUGGGACCCA: the self-cleavage is 0.142.

As to GGCCGGCAUGGUCACAGCCUCCUCGCUGGCGCCGGCUGGGCAACAUUCCGAGGGGACCGUCCCCUCGGUAAUGGCAAAUGGGACCCA, the self-cleavage came out at 0.718.

In the case of GGCCGGCAUGGUCCCAGCCUCCUCGCUGGCGCCGGCUGGGCAAGAUUCCGAGGGGACCGUCCCCUCGGUAAUAGCGAAUGGGACCCA, the self-cleavage was determined as 0.522.

On to GGCCGGCAUGGUCCCAGCCGCCUCGCUGGCGCCGGCUGGGCAACAUUCCGACGGGACCGUCCCCUCGGUAAUGGCGAAUGGGACCCA, for which the self-cleavage turned out to be 0.256.

Regarding GGCCGGCAUGGUCCCAGCCUCCUCGCUGGCGCCGGCUGGGAAACAUUCCGAGGGGACCGUCCCCCCGGUAAUGGCGAAUGGGACCCA, the self-cleavage is 1.14.

As for GGCCGGCAUGGUCCCAGCCUCCUCGCCGGCGCCGGCUGGGCAACAUUCCGAGGGGACCGUCCCCUCGGUAAUGGCGAAUGGGUCCCA, the self-cleavage amounted to 0.465.

For the variant GGCCGGCAUGGUCCCAGCGUCCUCGCUGGCGCCGGCUGGGCAACAUUCCGAGGGGACCGUCCCCUCGGUUAUGGCGAAUGGGACCCA, the self-cleavage was 0.102.

On to GGCCGGCAUGGUCCCAGCCUCCUCGAUGGCGCCGGCUGGGCAACAUUCCGAGGGGACCGUCCCCUCGGUAAUGGAGAAUGGGACCCA, for which the self-cleavage is 0.0415.

For the variant GGCCGGCAUGGUCCCAGCCUCCACGCUGGCGCCGGCUGGGCAACAUUCCGAGGGGACCGUCCCCUCGGUAAUCGCGAAUGGGACCCA, the self-cleavage turned out to be 0.554.

Take GGCCGGCAUGGUCCCAGCCUCCUGGCUGGCGCCGGCUGGGCAACAUUCCGAGGGGACCGUCCCCUCGGUAAUGGGGAAUGGGACCCA: the self-cleavage was 0.13.

In the case of GGCCGGCAUGGUCCCAGCGUCCGCGCUGGCGCCGGCUGGGCAACAUUCCGAGGGGACCGUCCCCUCGGUAAUGGCGAAUGGGACCCA, the self-cleavage was 0.0811.

Take GGCCGGCAUGGUCCCAGCCUCCUCGCUGGCGCCGGCGGGGCAACAUACCGAGGGGACCGUCCCCUCGGUAAUGGCGAAUGGGACCCA: the self-cleavage turned out to be 0.158.

With GGGCGGCAUGGUCCCAGCCUCCUCGCUGGCGCCGGCUGGGCAACAUUCCGAGGGGACCGUCCCCUAGGUAAUGGCGAAUGGGACCCA, the self-cleavage worked out at 0.585.

With GGCCGGCAUGGUCCCAGCCCCCUCGCUGGCGCCGGCUGGGCGACAUUCCGAGGGGACCGUCCCCUCGGUAAUGGCGAAUGGGACCCA, the self-cleavage was 0.

For GGCCGGCAUGGUCCCAGCUUCCUCGCUGGCGCCGGCUGGGCAACAUUCCGAGGGGACCGUCCCCUCGGUAGUGGCGAAUGGGACCCA, the self-cleavage worked out at 0.104.

With GGCCGGCAUGGUCCCAGCCUCCUCGCUGGCGCCGGCUGGGCAACAUUCCGAGGAGACCGUCACCUCGGUAAUGGCGAAUGGGACCCA, the self-cleavage was found to be 0.917.

As for GGCCGGCAUGCUCCCAGCCUCCUCUCUGGCGCCGGCUGGGCAACAUUCCGAGGGGACCGUCCCCUCGGUAAUGGCGAAUGGGACCCA, the self-cleavage is 0.

In the case of GCCCGGCAUGGUCCCAGGCUCCUCGCUGGCGCCGGCUGGGCAACAUUCCGAGGGGACCGUCCCCUCGGUAAUGGCGAAUGGGACCCA, the self-cleavage turned out to be 0.

Turning to GGCCGGCAUGGUCCCAGCCUCCUCGCUGGCGCCGGCUGGGCAACAUUCCGAGCGGACCGUCCCCUCGGUAAUGGCGAAUGGGACCCU, the self-cleavage came to 0.903.

In the case of GGCCGGCAUGGACCCAGCCUCCUCGCUGGCGCCGGCUGGGCAACAUUCCGAGGGGACCGUGCCCUCGGUAAUGGCGAAUGGGACCCA, the self-cleavage stood at 0.158.

On to GGCCGGCAUGGUCCCAGCCUCCUCUCUGGCGCCGGCUGGGCAACAUUCCGAGGGGACCGUCCCCUCGGUAAUGGCGAAUGGGACCCG, for which the self-cleavage worked out at 0.163.

As to GGCCGGCAUGGUCUCAGCCUCCUCGCUGGCGCCGGCUGGGCAACAUUCCGAGGGGACCGUCCCCUCGUUAAUGGCGAAUGGGACCCA, the self-cleavage turned out to be 1.04.

In the case of GGCCGGCAUGGUCCCAGCCUCCUCGCUGGCGCCGGCUGGGCAACAUUCCGAGGGGACCGUCCCCUCGGUUAUGGCGAAUGGAACCCA, the self-cleavage turned out to be 0.469.

Consider GGCCGGCAUGGUCCCAGCCUCCUCGAUGGCGCCGGCUGGGCAACAUUUCGAGGGGACCGUCCCCUCGGUAAUGGCGAAUGGGACCCA, for which the self-cleavage came to 0.941.

Take GGCCGGCAUGGUCCCAGCCUCCUCGCUGGCGCCGGCUGGGCAACAUUCCGAGGGGACCGUCCCCUCGGUAAUGGCGAGUAGGACCCA: the self-cleavage worked out at 0.242.

Take GGCCGGCAUGGUCCCAGCCUCCUCGCUGGCGCCGACUGGGCAACAUUCCGCGGGGACCGUCCCCUCGGUAAUGGCGAAUGGGACCCA: the self-cleavage amounted to 0.467.

GGCCGGCAUGGUCCCAGCCUCCUCCCUGGCGCCGGCUGGGCAACAUUCCGAGGGGACCGUCCCCUCGGUAAUGGCGAAUGGGACGCA: the self-cleavage is 0.125.

Turning to GGCCGGCAUGGUCCCAGCCUCCUCGCUGGCGCCGGCUGGGGAACAUUCCGAGGGGACCGUCCCCUCGGUAAUGACGAAUGGGACCCA, the self-cleavage amounted to 0.486.

As for GGCCGGCAUGGUCCCAGCCUCCUCGCUGGCGCCGGCUGGGCAACAUUCCGAGGGGACCGGCCCCUCGGUAAUGGCAAAUGGGACCCA, the self-cleavage turned out to be 1.08.

GGCCGGCAUGGUCCCAGCCUCCUCGCUGGCGCCGGCUGGGCAACAAUCCGAGGGGACCCUCCCCUCGGUAAUGGCGAAUGGGACCCA: the self-cleavage is 0.57.

For GACCGGCAUGGUCCAAGCCUCCUCGCUGGCGCCGGCUGGGCAACAUUCCGAGGGGACCGUCCCCUCGGUAAUGGCGAAUGGGACCCA, the self-cleavage was found to be 0.0382.

For the variant GGCCGGGAUGGUCCCAGCCUCCUCGCUGGCGCCGGCUGGGCAACAUUCCGAGGGGACCGUCCCCUCGGUAAUGGCGACUGGGACCCA, the self-cleavage was 0.175.

In the case of UGCCGGCAUGGUCCCAGCCUCCUCGCUGGCGCCGGCUGGGCAACAUUCCGUGGGGACCGUCCCCUCGGUAAUGGCGAAUGGGACCCA, the self-cleavage was 0.462.

For the variant GGCCGGCAUGGUCCCAGCCUCCUCGCUGGCGCCGGCUGGGCAACAUUCCGAGGGGACCGUCCCCUCCGUAAUGGCGAAUGGGACCCC, the self-cleavage was 0.84.

In the case of GGCCGGCAUGGUCCCAGCCUCCUCGCUGGCGCCGGCUGGGCAACAUUCCGAGGGGACCGUCCACUUGGUAAUGGCGAAUGGGACCCA, the self-cleavage came out at 0.814.

Take GGCCGGCAUGGUCCCAGCCUCCUCGCUUGCGCCGGCUGGGCAACAUUCCGAGGGGACCGUCCCCUCGGUAAUGGCGAAUGGGACCGA: the self-cleavage worked out at 0.217.

As for GGCCGGCAUGGUCCCAGCCUCCUCGCUGGCGCCGGCUGGGCAACCUUCCGAGGGGACCGUCCCCUCGGUAAUGGCGAAUGGGACCCA, the self-cleavage came to 0.702.

On to GGCCGGCAUGGUCCCAGCCUCCUCGCUGGCGCCGGCUGGGCAACAUUCCGAGGGGACCGUCCCGUCGGAAAUGGCGAAUGGGACCCA, for which the self-cleavage amounted to 1.01.

For the variant GGCCGGCAUGGUCCCAGCCUACUCGCUGGCGCCGGCUGGGCAACAUUCCGAGGGGACCGUCCACUCGGUAAUGGCGAAUGGGACCCA, the self-cleavage stood at 0.0314.
